From patent publication US20190233493A1 (Sanofi, published 2019) come the findings set out here.

T1: RXFP1 receptor (UniProt Q9HBX9 1-757, limits assumed)
T1 sequence (looked up): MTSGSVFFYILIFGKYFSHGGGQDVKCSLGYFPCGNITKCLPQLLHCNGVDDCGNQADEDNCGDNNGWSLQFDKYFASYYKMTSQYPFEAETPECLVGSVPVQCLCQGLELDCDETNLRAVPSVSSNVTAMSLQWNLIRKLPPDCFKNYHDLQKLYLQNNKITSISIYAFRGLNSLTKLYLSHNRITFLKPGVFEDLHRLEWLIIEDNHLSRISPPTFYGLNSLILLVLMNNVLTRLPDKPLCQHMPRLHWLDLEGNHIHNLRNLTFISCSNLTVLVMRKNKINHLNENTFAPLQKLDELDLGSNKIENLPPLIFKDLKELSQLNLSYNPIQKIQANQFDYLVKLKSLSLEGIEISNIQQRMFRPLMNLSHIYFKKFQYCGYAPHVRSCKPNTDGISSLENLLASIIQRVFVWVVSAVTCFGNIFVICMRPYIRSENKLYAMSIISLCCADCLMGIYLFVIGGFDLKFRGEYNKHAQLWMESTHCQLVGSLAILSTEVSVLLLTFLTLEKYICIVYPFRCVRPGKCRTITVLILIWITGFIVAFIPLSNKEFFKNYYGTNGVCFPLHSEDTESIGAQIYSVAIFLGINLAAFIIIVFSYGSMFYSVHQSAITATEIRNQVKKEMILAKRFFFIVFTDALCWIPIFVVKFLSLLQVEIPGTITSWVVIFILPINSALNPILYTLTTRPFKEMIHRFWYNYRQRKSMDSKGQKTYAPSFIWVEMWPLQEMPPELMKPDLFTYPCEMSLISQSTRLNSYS

B1: peptide of SEQ ID NO: 111 (peptide)
peptide: LEGREKVRAXIXXEGQSTWSXRKKX
modifications: Ac-L-E-G-R-E-K-V-R-A-K(Ac)-I-Aib-Aib-E-G-Q-S-T-W-S-Aib-R-K-K-K(PEG2-PEG2-PEG2-gE-gE-gE-gE-gE-Stea)-NH2
B2: peptide of SEQ ID NO: 122 (peptide)
peptide: LEGREKVRAQIXXEGXSTWSXRKKKX
modifications: Ac-L-E-G-R-E-K-V-R-A-Q-I-Aib-Aib-E-G-Nle-S-T-W-S-Aib-R-K-K-K-PEG4-PEG4-K(gE-gE-gE-gE-gE-Stea)-NH2

*1 amine or outer side, *2 acyl side, *3 side chain or, on linkers, in order; H or OH if unused. Primed or numbered codes have the meaning given here. Side-chain parts run from the residue outwards. [ ]: non-standard residue; d: D form. The star is where a group is joined. PEG4′ = 2-[2-[2-[2-[2-aminoethoxy]ethoxy]ethoxy]ethoxy]propanoyl; γGlu = O=C(O)[C@H](CCC(=O)[*:2])N[*:1]; 1Nal = N[C@@H](Cc1cccc2ccccc12)C(=O)O; Stearoyl = CCCCCCCCCCCCCCCCCC(=O)*; Palmitoyl = CCCCCCCCCCCCCCCC(=O)*; Lauroyl = CCCCCCCCCCCC(=O)*; Nle = CCCC[C@H](N)C(=O)O; PEG2′ = PEG2 spacer unit; PEG2″ = not defined here; Aib = CC(C)(N)C(=O)O

This assay addresses T1, RXFP1 receptor. The assay can be described thus: cell-based or functional assay.
On to Ac-LEGREKVRAK(Ac)I[Aib][Aib]EG[Nle]STWS[Aib]RKK(Ac)[PEG4′]K([γGlu-γGlu-γGlu-Stearoyl])-NH2 [peptide of SEQ ID NO: 123], for which the “EC50 (nM), OVCAR 5 cells (cAMP)” value came out at 0.38 nM and the “EMax, OVCAR 5 cells (cAMP)” value stood at 88%.
On the same counts, the results for Ac-LEGREKVRAK(Ac)I[Aib][Aib]EGQSTWS[Aib]RKK(Ac)K([PEG2″-PEG2″-PEG2″-γGlu-γGlu-γGlu-Stearoyl])-NH2 [peptide of SEQ ID NO: 113] are 0.53 nM and 89%.
On the same counts, the results for Ac-LEGREKVRAK(Ac)I[Aib][Aib]EG[Nle]STWS[Aib]RKK(Ac)[PEG2′][PEG2′][PEG2′][γGlu][γGlu]K([γGlu-Palmitoyl])-NH2 [peptide of SEQ ID NO: 117] are 1.16 nM and 86%.
Turning to Ac-LEGREKVRAQI[Aib][Aib]EG[Nle]STWS[Aib]RKK(Ac)[PEG2′][PEG2′][PEG2′][γGlu][γGlu]K([γGlu-Palmitoyl])-NH2 [peptide of SEQ ID NO: 119], the “EC50 (nM), OVCAR 5 cells (cAMP)” value is 1.21 nM and the “EMax, OVCAR 5 cells (cAMP)” value is 83%.
The corresponding values for Ac-LEGREKVRAQI[Aib][Aib]EG[Nle]STWS[Aib]RK[PEG2′]K([PEG2′-γGlu-γGlu-γGlu-Palmitoyl])-NH2 [peptide of SEQ ID NO: 12] are 26.7 nM and 76%.
On the same counts, the results for B1 are 0.21 nM and 92%.
For Ac-LEGREKVRAK(Ac)I[Aib][Aib]EG[Nle]STWS[Aib]RKK(Ac)[PEG4′][PEG4′]K([γGlu-γGlu-γGlu-Stearoyl])-NH2 [peptide of SEQ ID NO: 124], the “EC50 (nM), OVCAR 5 cells (cAMP)” value turned out to be 0.29 nM and the “EMax, OVCAR 5 cells (cAMP)” value is 88%.
On the same counts, the results for Ac-LEGREKVRAK(Ac)I[Aib][Aib]EG[Nle]STWS[Aib]RKK(Ac)K([PEG2′-PEG2′-PEG2′-γGlu-γGlu-γGlu-Lauroyl])-NH2 [peptide of SEQ ID NO: 120] are 110 nM and 92%.
On the same counts, the results for Ac-LEGREKVRAK(Ac)I[Aib][Aib]EGQSTWS[Aib]RKKK([PEG2′-PEG2′-PEG2′-γGlu-γGlu-γGlu-γGlu-Stearoyl])-NH2 [peptide of SEQ ID NO: 115] are 0.17 nM and 93%.
On the same counts, the results for Ac-LEGREKVRAK(Ac)I[Aib][Aib]EG[Nle]ST[1Nal]S[Aib]RKKK([PEG2″-PEG2″-γGlu-γGlu-γGlu-PEG2″-γGlu-Stearoyl])-NH2 [peptide of SEQ ID NO: 103] are 0.09 nM and 79%.
Consider Ac-LEGREKVRAQI[Aib][Aib]EG[Nle]STWS[Aib]RKKK([γGlu-γGlu-PEG2″-PEG2″-PEG2″-γGlu-Stearoyl])-NH2 [peptide of SEQ ID NO: 106], for which the “EC50 (nM), OVCAR 5 cells (cAMP)” value was found to be 0.34 nM and the “EMax, OVCAR 5 cells (cAMP)” value turned out to be 93%.
The corresponding values for Ac-LEGREKVRAQI[Aib][Aib]EG[Nle]STWS[Aib]RKK[PEG2″][PEG2″][PEG2″][γGlu][γGlu][γGlu]K([γGlu-Palmitoyl])-NH2 [peptide of SEQ ID NO: 110] are 0.17 nM and 80%.
On the same counts, the results for Ac-LEGREKVRAQI[Aib][Aib]EG[Nle]STWS[Aib]RKK(Ac)[PEG2′][PEG2′][γGlu][γGlu]K([γGlu-Palmitoyl])-NH2 [peptide of SEQ ID NO: 118] are 1.79 nM and 86%.
On the same counts, the results for Ac-LEGREKVRAQI[Aib][Aib]EG[Nle]STWS[Aib]RKK([PEG2″-PEG2″-γGlu-γGlu-PEG2″-γGlu-Stearoyl])-NH2 [peptide of SEQ ID NO: 100] are 0.16 nM and 90%.
On to B2, for which the “EC50 (nM), OVCAR 5 cells (cAMP)” value is 0.1 nM and the “EMax, OVCAR 5 cells (cAMP)” value was 93%.
On to Ac-LEGREKVRAQI[Aib][Aib]EG[Nle]STWS[Aib]RKKK[PEG2″][PEG2″][PEG2″][γGlu][γGlu]K([γGlu-Palmitoyl])-NH2 [peptide of SEQ ID NO: 109], for which the “EC50 (nM), OVCAR 5 cells (cAMP)” value turned out to be 0.15 nM and the “EMax, OVCAR 5 cells (cAMP)” value amounted to 98%.
In the case of Ac-LEGREKVRAK(Ac)I[Aib][Aib]EG[Nle]STWS[Aib]RKKK([PEG2″-PEG2″-γGlu-γGlu-γGlu-PEG2″-γGlu-Stearoyl])-NH2 [peptide of SEQ ID NO: 102], the “EC50 (nM), OVCAR 5 cells (cAMP)” value was 0.08 nM and the “EMax, OVCAR 5 cells (cAMP)” value turned out to be 80%.
As to Ac-LEGREKVRAQI[Aib][Aib]EG[Nle]STWS[Aib]RKK(Ac)[PEG2′][PEG2′][PEG2′][PEG2′][γGlu][γGlu]K([γGlu-Palmitoyl])-NH2 [peptide of SEQ ID NO: 121], the “EC50 (nM), OVCAR 5 cells (cAMP)” value was found to be 0.76 nM and the “EMax, OVCAR 5 cells (cAMP)” value stood at 91%.
Take Ac-LEGREKVRAK(Ac)I[Aib][Aib]EG[Nle]STFS[Aib]RKK(Ac)K([PEG2″-PEG2″-PEG2″-γGlu-γGlu-γGlu-Stearoyl])-NH2 [peptide of SEQ ID NO: 112]: the “EC50 (nM), OVCAR 5 cells (cAMP)” value was determined as 0.32 nM and the “EMax, OVCAR 5 cells (cAMP)” value came out at 88%.
As for Ac-LEGREKVRAQI[Aib][Aib]EG[Nle]STWS[Aib]RKKK[PEG2″][PEG2″][PEG2″][γGlu][γGlu][γGlu]K([γGlu-Palmitoyl])-NH2 [peptide of SEQ ID NO: 107], the “EC50 (nM), OVCAR 5 cells (cAMP)” value was 0.63 nM and the “EMax, OVCAR 5 cells (cAMP)” value worked out at 85%.
On the same counts, the results for Ac-LEGREKVRAQI[Aib][Aib]EG[Nle]STWS[Aib]RK[PEG2″][PEG2″]K([γGlu-γGlu-γGlu-Palmitoyl])-NH2 [peptide of SEQ ID NO: 11] are 14.7 nM and 89%.
The corresponding values for Ac-LEGREKVRAQI[Aib][Aib]EG[Nle]STWS[Aib]RKKK[PEG2″][PEG2″][PEG2″][PEG2″][γGlu][γGlu][γGlu]K([γGlu-Palmitoyl])-NH2 [peptide of SEQ ID NO: 108] are 0.15 nM and 94%.
The corresponding values for Ac-LEGREKVRAQI[Aib][Aib]EG[Nle]STWS[Aib]RKK([γGlu-γGlu-PEG2″-PEG2″-γGlu-Stearoyl])-NH2 [peptide of SEQ ID NO: 104] are 0.16 nM and 89%.
On to Ac-LEGREKVRAQI[Aib][Aib]EG[Nle]STWS[Aib]RKKK([γGlu-γGlu-PEG2″-PEG2″-γGlu-Stearoyl])-NH2 [peptide of SEQ ID NO: 105], for which the “EC50 (nM), OVCAR 5 cells (cAMP)” value came to 0.03 nM and the “EMax, OVCAR 5 cells (cAMP)” value was found to be 88%.
On the same counts, the results for Ac-LEGREKVRAK(Ac)I[Aib][Aib]EG[Nle]STWS[Aib]RKK(Ac)[PEG2′][PEG2′][PEG2′][PEG2′][γGlu][γGlu]K([γGlu-Palmitoyl])-NH2 [peptide of SEQ ID NO: 116] are 1 nM and 89%.
The corresponding values for Ac-LEGREKVRAK(Ac)I[Aib][Aib]EG[Nle]STWS[Aib]RKK(Ac)K([PEG2″-PEG2″-γGlu-γGlu-PEG2″-γGlu-Stearoyl])-NH2 [peptide of SEQ ID NO: 101] are 0.16 nM and 86%.
Take Ac-LEGREKVRAK(Ac)I[Aib][Aib]EG[Nle]STWS[Aib]RKK(Ac)[PEG2″][PEG2″][PEG2″]K([γGlu-γGlu-γGlu-Palmitoyl])-NH2 [peptide of SEQ ID NO: 114]: the “EC50 (nM), OVCAR 5 cells (cAMP)” value was found to be 1.34 nM and the “EMax, OVCAR 5 cells (cAMP)” value was determined as 90%.
